This passage reports Kd results from publication PMC8692065 (Cell Reports, 2021).

This assay concerns the target SARS-CoV-2 S1 (Avi-tag, biotinylated) (SARS-CoV-2, original strain, UniProt P0DTC2, biotinylated (Avi-tag)). Kind of assay: BLI. A general note: BLI is a label-free optical method that tracks binding on a fibre tip over time.

B1: mAb-50, purified antibody (antibody, V domains shown)
VH: QVQLQESGPGLVNPSETLSLTCGVSGYSISSGFYWGWIRQPPGKGLEWIGSIYHRGSTFYNPSLKSRVTISVDRSKNQFSLRLSSVTAADTAVYYCARGEVLTSGGYNARFDPWGQGTLVTVSS
VL: DIQMTQSPSTLSASVGDSVTITCRASQSISLWLAWYQQKPGKAPKVLIYETSSLESGVPSRFSGSGAGTEFTLTISSLQPDDFATYYCQQYISYPLTFGGGTKVEIK
In turn, B1 came in with a Kd of 1.61 nM. This lies in the single-digit nanomolar range.

B2: mAb-64, purified antibody (antibody, V domains shown)
VH: EVQLVETGGGLIQPGGSLRLSCAASGFTVSSNYMSWVRQAPGKGLEWVSVIYSGGSTYYADSVKGRFTISRDNSKNTLYLQMNSLRAEDTAVYYCARDLHIYGMDVWGQGTTVTVSS
VL: DIQMTQSPSSVSASVGDRVTITCRASQGISSWLAWYQQKPGKAPKLLIYAASSLQSGVPSRFSGSGSGTDFTLTISSLQPEDFATYYCQQANSFPNFGGGTKVEIK
In the case of B2, the equilibrium dissociation constant (Kd) was 1.96 nM. The Kd values of the last two molecules are within 1.5-fold of each other.

By Kd is commonly meant a measure of binding affinity in units of concentration. Low readings indicate higher affinity, high ones lower affinity.
